Patent US20260078195A1 (BEIJING MABWORKS BIOTECH, published 2026)

T1: monkey GPRC5D expressed on HEK293T cells (monkey, UniProt Q9NZD1 1-298 (human entry))
T1 construct: also called HEK293T/monkey GPRC5D cells
T1 chain: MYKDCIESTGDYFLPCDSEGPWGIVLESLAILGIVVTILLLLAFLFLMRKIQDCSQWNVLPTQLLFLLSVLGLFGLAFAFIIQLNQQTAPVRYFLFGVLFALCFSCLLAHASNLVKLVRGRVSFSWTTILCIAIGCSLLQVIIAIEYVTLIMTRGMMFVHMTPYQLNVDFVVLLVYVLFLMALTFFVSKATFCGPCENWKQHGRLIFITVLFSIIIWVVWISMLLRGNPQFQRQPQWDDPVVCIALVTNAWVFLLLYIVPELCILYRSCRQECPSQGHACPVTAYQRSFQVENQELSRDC

T2: human BCMA antigen (Cat #:BCA-H522y, ACRO) (human, UniProt Q02223 1-54)
T2 construct: Bought recombinant protein used as SPR analyte
T2 sequence: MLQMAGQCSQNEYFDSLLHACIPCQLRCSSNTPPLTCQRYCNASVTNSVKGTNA

T3: mouse BCMA expressed on HEK293A cells (mouse, UniProt O88472 1-185)
T3 construct: also called HEK293A/mouse BCMA cells
T3 sequence: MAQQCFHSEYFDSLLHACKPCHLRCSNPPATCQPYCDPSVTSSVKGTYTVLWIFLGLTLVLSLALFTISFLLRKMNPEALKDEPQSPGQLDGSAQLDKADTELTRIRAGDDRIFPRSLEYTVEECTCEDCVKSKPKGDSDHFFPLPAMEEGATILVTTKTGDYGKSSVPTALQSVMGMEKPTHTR

T4: human BCMA expressed on HEK293A cells (human, UniProt Q02223 1-184)
T4 construct: also called HEK293A/human BCMA cells
T4 sequence: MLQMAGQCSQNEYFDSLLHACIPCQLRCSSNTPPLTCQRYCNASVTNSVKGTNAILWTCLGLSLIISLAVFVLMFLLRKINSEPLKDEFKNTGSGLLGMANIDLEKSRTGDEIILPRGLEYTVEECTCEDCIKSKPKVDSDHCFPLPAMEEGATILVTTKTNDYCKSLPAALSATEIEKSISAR


Experiments:
[1] = biological target: T5, human CD3 complex on Jurkat cells (human, UniProt P07766 23-207; P04234 22-171; P09693 23-182; P20963 22-164); assay: FACS on Jurkat cells, PE goat anti-human IgG (H+L) secondary antibody, MFI
T5 construct: whole, on cells; Endogenous CD3 complex of Jurkat / JURKAT-NFAT-Luc cells; also called human Jurkat T cells; CD3 on the surface of JURKAT-NFAT-Luc cells
Description: (§1) The cells were re-suspended in PBS, counted, and centrifuged again to remove the supernatants. The cells were re-suspended in 2% FBS-PBS, to adjust the cell concentration to 4×10⁶/ml. Each kind of cells were added to 96-well U-bottom plates, 50 μl/well. The antibodies were diluted in 2% FBS-PBS, 5-fold serial dilution starting at 40 μg/ml, obtaining 12 concentrations in total. The 96-well plates were added with 50 μl antibody dilution, mixed well, and incubated at room temperature for 1 h. The plates were washed by 2% FBS-PBS, 200 μl/well, for three times. The plates were added with PE labelled goat-anti-human IgG (H+L) secondary antibody (1:500 diluted), 50 μl/well, and incubated at room temperature for 45 min. The plates were washed by 2% FBS-PBS, 200 μl/well, for three times. Finally the plates were added with 150 μl 2% FBS-PBS to re-suspend the cells, and the cells were tested in a flow cytometer. The data was processed in FlowJo and analyzed in GraphPad.

[2] = biological target: T6, human GPRC5D expressed on HEK293T cells (human, UniProt Q9NZD1 1-345); assay: FACS on HEK293T/human GPRC5D cells, PE goat anti-human IgG (H+L) secondary antibody, MFI
T6 construct: also called HEK293T/human GPRC5D cells
Description: as §1

[3] = biological target: T1, monkey GPRC5D expressed on HEK293T cells; assay: FACS on HEK293T/monkey GPRC5D cells, PE goat anti-human IgG (H+L) secondary antibody, MFI
Description: as §1

[4] = biological target: T7, monkey BCMA expressed on HEK293A cells (monkey, UniProt Q02223 1-184 (human entry)); assay: FACS on HEK293A/monkey BCMA cells, PE goat anti-human IgG (H+L) secondary antibody, MFI
T7 construct: also called HEK293A/monkey BCMA cells
Description: as §1

[5] = biological target: T2, human BCMA antigen (Cat #:BCA-H522y, …); assay: SPR (BIAcore 8K), antibody captured by anti-human Fc on CM5 chip, antigen as analyte
Description: (§2) The mouse anti-human Fe antibody (Cat #:BR100839, cytiva) was coupled to the surface of a CM5 chip. The antibody to be tested was diluted to 1 μg/ml with the HBS-EP buffer (Cat #:BR-1006-69, GE Life Sciences), to ensure about 100 RU of the antibody was captured by the anti-human Fe antibody. The human BCMA antigen (Cat #:BCA-H522y, ACRO), human CD3D&E protein (Cat #: CT038-H2508H, Sino biological), and human GPRC5D antigen (Cat #:HM05P, Kactus Biosystems) were diluted with HBS-EP buffer to […], respectively. Each protein at different concentrations was flowed through the surface of the stationary phase. Chips were regenerated by 3 M MgCl₂ solution. The kinetics assay was run with the Kinetics Wizard in BIAcore 8K's control software. […] The data was fitted in BIAcore 8K's evaluation software, and KD values of the test antibodies to the above antigens were determined and summarized in Table 1.

[6] = biological target: T8, human CD3D&E protein (Cat #: CT038-H2508H, Sino biological) (human, UniProt P04234 22-105; P07766 23-126); assay: as above
T8 construct: Bought recombinant delta/epsilon complex used as SPR analyte; also called CD3D&E complex
Description: as §2

[7] = biological target: T9, human GPRC5D antigen (Cat #:HM05P, Kactus Biosystems) (human, UniProt Q9NZD1 1-345, limits assumed); assay: as above
T9 construct: Bought antigen used as SPR analyte
Description: as §2

[8] = biological target: T3, mouse BCMA expressed on HEK293A cells; assay: FACS on HEK293A/mouse BCMA cells, PE goat anti-human IgG (H+L) secondary antibody, MFI
Description: as §1

[9] = biological target: T4, human BCMA expressed on HEK293A cells; assay: FACS on HEK293A/human BCMA cells, PE goat anti-human IgG (H+L) secondary antibody, MFI
Description: as §1

T9 sequence (Q9NZD1 whole entry): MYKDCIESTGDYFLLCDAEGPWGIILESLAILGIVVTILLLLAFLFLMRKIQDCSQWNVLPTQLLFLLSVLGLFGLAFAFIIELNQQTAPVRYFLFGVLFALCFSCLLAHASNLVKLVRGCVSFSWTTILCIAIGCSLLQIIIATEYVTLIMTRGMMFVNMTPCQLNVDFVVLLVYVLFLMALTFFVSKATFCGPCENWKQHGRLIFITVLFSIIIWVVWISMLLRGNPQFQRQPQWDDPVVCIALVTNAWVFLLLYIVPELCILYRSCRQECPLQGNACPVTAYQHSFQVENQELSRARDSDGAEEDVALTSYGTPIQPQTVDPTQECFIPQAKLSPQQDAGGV
T8 sequence (P04234 22-105, chain 1 of 2): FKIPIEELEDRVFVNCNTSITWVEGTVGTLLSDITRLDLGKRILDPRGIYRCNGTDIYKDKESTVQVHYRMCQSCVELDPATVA
T8 sequence (P07766 23-126, chain 2 of 2): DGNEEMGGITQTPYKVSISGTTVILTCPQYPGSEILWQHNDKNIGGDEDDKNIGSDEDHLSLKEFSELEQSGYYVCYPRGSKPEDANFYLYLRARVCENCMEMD
T5 sequence (P07766 23-207, chain 1 of 4): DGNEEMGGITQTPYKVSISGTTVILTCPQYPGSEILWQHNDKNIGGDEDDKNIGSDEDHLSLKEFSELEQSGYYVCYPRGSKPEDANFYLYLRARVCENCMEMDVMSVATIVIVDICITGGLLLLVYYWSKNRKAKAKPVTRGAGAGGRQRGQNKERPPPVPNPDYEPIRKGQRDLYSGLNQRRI
T5 sequence (P04234 22-171, chain 2 of 4): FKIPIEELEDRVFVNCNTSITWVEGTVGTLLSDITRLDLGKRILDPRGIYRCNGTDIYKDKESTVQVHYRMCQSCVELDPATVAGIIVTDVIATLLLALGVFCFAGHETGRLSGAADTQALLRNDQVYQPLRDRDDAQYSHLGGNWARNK
T5 sequence (P09693 23-182, chain 3 of 4): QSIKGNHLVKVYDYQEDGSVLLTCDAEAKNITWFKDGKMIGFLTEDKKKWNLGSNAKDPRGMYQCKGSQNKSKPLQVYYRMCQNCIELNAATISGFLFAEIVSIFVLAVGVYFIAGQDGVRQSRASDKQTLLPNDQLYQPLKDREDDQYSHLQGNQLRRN
T5 sequence (P20963 22-164, chain 4 of 4): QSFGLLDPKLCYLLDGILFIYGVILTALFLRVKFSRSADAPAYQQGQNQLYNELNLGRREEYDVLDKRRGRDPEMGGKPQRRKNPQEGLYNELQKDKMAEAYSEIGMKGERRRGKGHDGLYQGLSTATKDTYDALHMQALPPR
T7 sequence (Q02223 other isoform, or with tags, fused parts or gaps): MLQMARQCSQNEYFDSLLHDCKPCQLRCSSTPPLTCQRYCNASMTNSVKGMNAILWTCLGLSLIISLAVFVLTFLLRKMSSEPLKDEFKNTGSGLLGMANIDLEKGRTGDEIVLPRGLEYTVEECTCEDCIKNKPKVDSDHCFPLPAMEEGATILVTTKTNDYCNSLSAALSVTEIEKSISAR
T6 sequence (Q9NZD1 whole entry): as the sequence (Q9NZD1 whole entry) above

Row | Binder | binding result [1] | EC50 (read off the curve) [2] [µg/mL] | EC50 (read off the curve) [3] [µg/mL] | EC50 (read off the curve) [4] [µg/mL] | Kd [5] [nM] | koff [5] [s⁻¹] | kon [5] [M⁻¹ s⁻¹] | Kd [6] [nM] | koff [6] [s⁻¹] | kon [6] [M⁻¹ s⁻¹] | Kd [7] [nM] | koff [7] [s⁻¹] | kon [7] [M⁻¹ s⁻¹] | binding result [8] | EC50 (read off the curve) [9] [µg/mL] | EC50 (read off the curve) [1] [µg/mL]
1 | MBS314 (tri-specific GPRC5D×BCMA×CD3 antibody) (other, also called antibody MBS314; tri-specific CD3×BCMA×GPRC5D antibody) heavy 1: QVQLVQSGAEVKKPGASVKVSCKASGYTFTNHIIHWVRQAPGQGLEWMGYINPYPGYHGYNDKFSGRATMTSDTSTSTVYMELSSLRSEDTAVYYCARDGYYRDQDVLDYWGQGTLVTVSSGGGGSGGGGSGGGGSGGGGSDIQMTQSPSSLSASVGDRVTITCKASQDISQYLNWYQQKPGKAPKLLIYYTSGLHPGVPSRFSGSGSGTDFTFTISSLEPEDEATYYCQQGYALPWTFGQGTKLTAKGGGGSGGGGSGGGGSEVQLVESGGGLVQPGRSLRLSCAASGFTFDDFAMHWVRQAPGKGLEWVSGITWNSGSVGYADSVKGRFTISRDNAKKSLYLQMNSLRAEDTALYYCAKDRSGYGHYYYGMDVWGQGTTVTVASASTKGPSVFPLAPSSKSTSGGTAALGCLVKDYFPEPVTVSWNSGALTSGVHTFPAVLQSSGLYSLSSVVTVPSSSLGTQTYICNVNHKPSNTKVDKKVEPKSCDKTHTCPPCPAPEAAGGPSVFLFPPKPKDTLMISRTPEVTCVVVDVSHEDPEVKFNWYVDGVEVHNAKTKPREEQYASTYRVVSVLTVLHQDWLNGKEYKCKVSNKALPAPIEKTISKAKGQPREPQVYTLPPSREEMTKNQVSLWCLVKGFYPSDIAVEWESNGQPENNYKTTPPVLDSDGSFFLYSKLTVDKSRWQQGNVFSCSVMHEALHNHYTQKSLSLSPGK light 1: not shown heavy 2: QVQLQESGPGLVKPSETLSLTCTVSGYSITSDYAWNWIRQPPGKGLEWMGYISYSGSATYSPSLKSRITISRDTSKNQFSLKLSSVTAADTAVYYCARGGIAGRGRWGAMDYWGQGTTVTVSSASTKGPSVFPLAPSSKSTSGGTAALGCLVKDYFPEPVTVSWNSGALTSGVHTFPAVLQSSGLYSLSSVVTVPSSSLGTQTYICNVNHKPSNTKVDKKVEPKSCDKTHTCPPCPAPEAAGGPSVFLFPPKPKDTLMISRTPEVTCVVVDVSHEDPEVKFNWYVDGVEVHNAKTKPREEQYASTYRVVSVLTVLHQDWLNGKEYKCKVSNKALPAPIEKTISKAKGQPREPQVYTLPPSREEMTKNQVSLSCAVKGFYPSDIAVEWESNGQPENNYKTTPPVLDSDGSFFLVSKLTVDKSRWQQGNVFSCSVMHEALHNHYTQKSLSLSPGK light 2: DIQMTQSPSSLSASVGDRVTITCKASQNVGTNVAWYQQKPGQSPKALIYSASYRDSGVPDRFSGSGSGTDFTLTISSLQPEDFATYYCQQYKSYPLTFGQGTRLEIKRTVAAPSVFIFPPSDEQLKSGTASVVCLLNNFYPREAKVQWKVDNALQSGNSQESVTEQDSKDSTYSLSSTLTLSKADYEKHKVYACEVTHQGLSSPVTKSFNRGEC | binds | ~0.4 | ~0.4 | ~0.8 | 0.441 | 0.000283 | 642000 | 249 | 0.00774 | 31100 | 3.53 | 0.00174 | 493000 | no binding | ~1 | 
2 | JNJ-64407564 (bi-specific GPRC5D×CD3 antibody) (bispecific antibody) chain 1: QVQLVQSGAEVKKPGASVKVSCKASGYSFTGYTMNWVRQAPGQGLEWMGLINPYNSDTNYAQKLQGRVTMTTDTSTSTAYMELRSLRSDDTAVYYCARVALRVALDYWGQGTLVTVSS chain 2: DIQMTQSPSSLSASVGDRVTITCKASQNVATHVGWYQQKPGKAPKRLIYSASYRYSGVPSRFSGSGSGTEFTLTISNLQPEDFATYYCQQYNRYPYTFGQGTKLEIK chain 3: EVQLVESGGGLVQPGGSLRLSCAASGFTFNTYAMNWVRQAPGKGLEWVARIRSKYNNYATYYAASVKGRFTISRDDSKNSLYLQMNSLKTEDTAVYYCARHGNFGNSYVSWFAYWGQGTLVTVSS chain 4: QTVVTQEPSLTVSPGGTVTLTCRSSTGAVTTSNYANWVQQKPGQAPRGLIGGTNKRAPGTPARFSGSLLGGKAALTLSGVQPEDEAEYYCALWYSNLWVFGGGTKLTVL |  |  |  |  |  |  |  |  |  |  |  |  |  |  |  | ~0.06
